# Bridges are numbered along the chain shown (N, C = ends). Where no end group is shown, it is not given here. fluorescein = fluorescein fluorescent label attached to the peptide
# Target: T1, human c-Met (human, UniProt P08581 25-1390)
# T1 construct: whole, on cells; Endogenous receptor on human cell lines; alpha and beta sub-units come from one precursor; also called c-Met protein; HGF receptor
# Experiment: confocal fluorescence microscopy on human c-Met expressing SNU-638 cells
# Protocol: To human c-Met expressing cells (human SNU-638 cells) or human c-Met non-expressing cells (human SNU-216 cells) cultured on a glass-bottom dish were added a RPMI1640 medium containing 1 mg/L of Hoechst 33342, a nuclear staining reagent, an anti-human c-Met antibody, and 1 uM of L5-2-fluorescein, D4-3-fluorescein, D5-4-fluorescein, D4-3NMe-fluorescein, or D4-3scr-fluorescein and the resulting mixture was incubated in 5% CO₂ at 37° C. for 5 minutes. Then, a RPMI1640 medium containing an HRP-anti-rat secondary antibody and 1 μM of L5-2-fluorescein, D4-3-fluorescein, D5-4-fluorescein, D4-3NMe-fluorescein, or D4-3scr-fluorescein was added and the resulting mixture was incubated in 5% CO₂ at 37° C. for 5 minutes.
# The cells were washed three times with a D-MEM medium and were microscopically observed in a new RPMI1640 medium. The localization of the peptide was observed using a confocal fluorescence microscope for the microscopic observation.
# T1 sequence (P08581 25-1390): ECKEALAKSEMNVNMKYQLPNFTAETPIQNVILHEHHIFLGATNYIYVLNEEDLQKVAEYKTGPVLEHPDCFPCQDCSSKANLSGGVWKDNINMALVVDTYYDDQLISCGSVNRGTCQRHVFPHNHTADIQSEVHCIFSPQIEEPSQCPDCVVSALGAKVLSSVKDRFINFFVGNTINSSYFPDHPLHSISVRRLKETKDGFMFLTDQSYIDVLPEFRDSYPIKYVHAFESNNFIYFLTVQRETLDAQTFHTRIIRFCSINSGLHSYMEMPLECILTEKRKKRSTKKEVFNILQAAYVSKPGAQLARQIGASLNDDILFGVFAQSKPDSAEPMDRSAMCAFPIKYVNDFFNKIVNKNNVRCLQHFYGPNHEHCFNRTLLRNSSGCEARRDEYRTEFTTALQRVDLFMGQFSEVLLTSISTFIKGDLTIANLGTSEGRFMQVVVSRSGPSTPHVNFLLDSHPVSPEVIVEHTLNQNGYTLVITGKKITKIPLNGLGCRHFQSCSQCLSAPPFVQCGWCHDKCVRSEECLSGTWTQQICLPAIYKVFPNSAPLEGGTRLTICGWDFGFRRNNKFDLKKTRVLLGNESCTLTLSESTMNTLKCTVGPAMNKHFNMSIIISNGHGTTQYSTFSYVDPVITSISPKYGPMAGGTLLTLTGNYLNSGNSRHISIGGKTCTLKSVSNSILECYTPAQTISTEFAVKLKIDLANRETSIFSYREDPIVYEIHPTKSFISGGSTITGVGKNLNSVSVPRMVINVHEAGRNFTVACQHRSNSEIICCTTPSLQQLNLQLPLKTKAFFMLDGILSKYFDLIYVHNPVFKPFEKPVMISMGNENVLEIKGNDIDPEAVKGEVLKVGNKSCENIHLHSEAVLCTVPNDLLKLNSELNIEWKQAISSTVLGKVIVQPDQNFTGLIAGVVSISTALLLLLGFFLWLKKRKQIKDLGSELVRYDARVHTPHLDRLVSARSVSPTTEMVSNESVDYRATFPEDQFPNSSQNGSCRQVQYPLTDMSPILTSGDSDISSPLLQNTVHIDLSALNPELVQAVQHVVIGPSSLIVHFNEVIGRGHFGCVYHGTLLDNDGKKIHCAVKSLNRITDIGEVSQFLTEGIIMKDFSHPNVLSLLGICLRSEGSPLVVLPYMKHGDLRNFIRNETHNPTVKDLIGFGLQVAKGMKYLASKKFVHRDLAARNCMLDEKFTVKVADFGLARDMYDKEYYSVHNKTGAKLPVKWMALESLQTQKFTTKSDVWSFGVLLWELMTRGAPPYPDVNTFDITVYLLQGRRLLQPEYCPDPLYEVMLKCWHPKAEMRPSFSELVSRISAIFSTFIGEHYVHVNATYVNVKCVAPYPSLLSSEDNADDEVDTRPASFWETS
binder,measurement,value
"{CH2CO}-YERVNHLFRNQTWDRCGK(fluorescein) (thioether N-16, Negative control) [D4-3scr-fluorescein]",binding result,no binding (tested: 1 uM)

# Source: patent US20160237119A1 (UNIVERSITY OF TOKYO, published 2016)
